No end group written: not given here. fluorescein = fluorescein label attached to the Cys side chain
Key:
[1] = molecular target: T1, TmrAB D125A^TmrB (Thermus thermophilus, UniProt Q72J05 1-600; Q72J04 1-578, D125A); assay: fluorescence polarisation; 1.7 uM TmrAB with 50 nM RRY(C^Fluorescein)KSTEL in SEC buffer (20 mM HEPES, 150 mM NaCl, pH 7, 0.05% ß-DDM), 15 minutes on ice, in the absence or presence of 5 mM ATP and 10 mM MgCl2; read at 25°C (the results say 4°C); signal normalized to WT without ATP; details: both partners purified
T1 construct: TmrA, Thermus thermophilus, the chain of TmrAB with the canonical Walker B motif; TmrB, Thermus thermophilus, the chain of TmrAB with the non-canonical Walker B motif; also called D125A^TmrB variant
T1 sequence 1: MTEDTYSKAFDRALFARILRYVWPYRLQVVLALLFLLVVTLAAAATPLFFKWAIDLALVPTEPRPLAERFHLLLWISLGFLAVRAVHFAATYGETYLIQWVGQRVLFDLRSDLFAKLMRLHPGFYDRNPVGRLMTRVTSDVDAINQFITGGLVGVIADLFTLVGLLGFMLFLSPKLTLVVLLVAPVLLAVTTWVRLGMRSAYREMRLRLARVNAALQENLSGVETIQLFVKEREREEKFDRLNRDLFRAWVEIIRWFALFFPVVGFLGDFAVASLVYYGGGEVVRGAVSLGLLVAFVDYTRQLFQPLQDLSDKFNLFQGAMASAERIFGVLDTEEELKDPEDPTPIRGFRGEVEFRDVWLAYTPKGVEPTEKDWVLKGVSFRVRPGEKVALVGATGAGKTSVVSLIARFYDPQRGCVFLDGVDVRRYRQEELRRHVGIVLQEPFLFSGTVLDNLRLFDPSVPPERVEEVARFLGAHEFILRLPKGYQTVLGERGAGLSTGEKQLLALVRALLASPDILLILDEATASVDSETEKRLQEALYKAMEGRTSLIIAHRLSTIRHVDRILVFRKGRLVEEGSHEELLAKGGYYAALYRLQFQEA
T1 sequence 2: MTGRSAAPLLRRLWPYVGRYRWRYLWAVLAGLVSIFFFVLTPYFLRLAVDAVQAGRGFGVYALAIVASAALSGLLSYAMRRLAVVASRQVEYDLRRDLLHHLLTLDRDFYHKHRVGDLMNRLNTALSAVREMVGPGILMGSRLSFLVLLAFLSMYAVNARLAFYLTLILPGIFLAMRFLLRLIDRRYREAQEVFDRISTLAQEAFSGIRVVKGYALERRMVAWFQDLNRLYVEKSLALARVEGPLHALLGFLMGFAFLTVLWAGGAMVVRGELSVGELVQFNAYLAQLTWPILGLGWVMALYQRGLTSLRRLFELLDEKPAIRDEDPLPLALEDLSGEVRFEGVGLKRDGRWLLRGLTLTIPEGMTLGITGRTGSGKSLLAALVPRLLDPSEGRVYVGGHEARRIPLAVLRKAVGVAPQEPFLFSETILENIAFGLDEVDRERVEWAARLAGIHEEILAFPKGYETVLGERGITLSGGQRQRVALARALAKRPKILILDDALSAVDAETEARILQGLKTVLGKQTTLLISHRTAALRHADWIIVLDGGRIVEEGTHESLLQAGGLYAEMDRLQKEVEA

[2] = molecular target: T2, TmrAB G131A^TmrA (Thermus thermophilus, UniProt Q72J05 1-600; Q72J04 1-578, G131A); assay: as above; details: both partners purified
T2 construct: TmrA, Thermus thermophilus, the chain of TmrAB with the canonical Walker B motif; TmrB, Thermus thermophilus, the chain of TmrAB with the non-canonical Walker B motif; also called G131A^TmrA variant; source: cultured at room temperature for 16 hours after induction
T2 sequence 1: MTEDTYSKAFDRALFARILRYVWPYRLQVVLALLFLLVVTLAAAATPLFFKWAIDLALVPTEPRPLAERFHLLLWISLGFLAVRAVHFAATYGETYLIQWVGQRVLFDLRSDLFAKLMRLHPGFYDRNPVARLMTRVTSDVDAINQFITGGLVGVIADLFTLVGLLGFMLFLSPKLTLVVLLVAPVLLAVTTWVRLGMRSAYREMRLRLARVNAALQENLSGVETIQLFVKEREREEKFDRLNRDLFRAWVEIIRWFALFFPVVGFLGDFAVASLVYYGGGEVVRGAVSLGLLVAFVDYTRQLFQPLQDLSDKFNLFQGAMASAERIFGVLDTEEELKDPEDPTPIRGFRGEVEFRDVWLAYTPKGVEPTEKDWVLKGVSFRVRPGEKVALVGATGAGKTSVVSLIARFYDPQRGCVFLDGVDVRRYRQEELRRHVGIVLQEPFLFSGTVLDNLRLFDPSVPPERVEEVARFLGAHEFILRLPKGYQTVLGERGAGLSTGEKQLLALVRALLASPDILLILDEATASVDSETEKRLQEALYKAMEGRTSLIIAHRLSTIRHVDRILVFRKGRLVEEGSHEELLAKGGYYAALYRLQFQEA
T2 sequence 2: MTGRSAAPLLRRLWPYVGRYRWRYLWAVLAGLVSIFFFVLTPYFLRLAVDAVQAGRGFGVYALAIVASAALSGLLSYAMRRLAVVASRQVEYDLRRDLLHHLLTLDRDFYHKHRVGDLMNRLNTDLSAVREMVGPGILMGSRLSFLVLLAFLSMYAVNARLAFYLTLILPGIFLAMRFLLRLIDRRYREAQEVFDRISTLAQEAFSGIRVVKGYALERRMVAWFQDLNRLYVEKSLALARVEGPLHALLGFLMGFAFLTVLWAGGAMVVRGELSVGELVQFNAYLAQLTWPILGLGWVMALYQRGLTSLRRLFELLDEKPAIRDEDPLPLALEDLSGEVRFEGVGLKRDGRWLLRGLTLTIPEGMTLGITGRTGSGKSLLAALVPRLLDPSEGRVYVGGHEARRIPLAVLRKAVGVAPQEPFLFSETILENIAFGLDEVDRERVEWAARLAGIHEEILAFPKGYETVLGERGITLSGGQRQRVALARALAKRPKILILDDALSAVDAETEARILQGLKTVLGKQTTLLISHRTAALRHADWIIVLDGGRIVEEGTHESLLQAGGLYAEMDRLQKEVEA

B1: fluorescent transport substrate peptide RRY(C^Fluorescein)KSTEL (peptide)
peptide: RRYC(fluorescein)KSTEL
notes: fluorescein-labelled transport substrate peptide of TmrAB; also called fluorescently-labeled peptide substrate; peptide substrate; source: bought: Genscript
[1]
  binding result: binds
[2]
  binding result: binds

From publication doi:10.1101/2020.01.12.903617, “The peptide sensor motif stabilizes the outward-facing conformation of TmrAB” (bioRxiv, 2020)
